According to the supplement of paper PMC10065799, “High-throughput profiling of sequence recognition by tyrosine kinases and SH2 domains using bacterial peptide display” (eLife, 2023):

Legend:
Grb2 SH2 = Grb2 SH2 (UniProt P62993); test: SH2 binding enrichment of the phosphorylated peptide, bacterial display (enrichment ratio); higher = better substrate or ligand; peptides without Tyr show the background
SHP2-C SH2 = test: as above
c-Src SH2 = test: as above
c-Abl (mouse) = test: phosphorylation enrichment, bacterial display (enrichment ratio); higher = better substrate or ligand; peptides without Tyr show the background
AncSZ = test: as above
Jak2 = Jak2 (UniProt O60674); test: as above
Sequence of Jak2 (O60674 whole entry, looked up): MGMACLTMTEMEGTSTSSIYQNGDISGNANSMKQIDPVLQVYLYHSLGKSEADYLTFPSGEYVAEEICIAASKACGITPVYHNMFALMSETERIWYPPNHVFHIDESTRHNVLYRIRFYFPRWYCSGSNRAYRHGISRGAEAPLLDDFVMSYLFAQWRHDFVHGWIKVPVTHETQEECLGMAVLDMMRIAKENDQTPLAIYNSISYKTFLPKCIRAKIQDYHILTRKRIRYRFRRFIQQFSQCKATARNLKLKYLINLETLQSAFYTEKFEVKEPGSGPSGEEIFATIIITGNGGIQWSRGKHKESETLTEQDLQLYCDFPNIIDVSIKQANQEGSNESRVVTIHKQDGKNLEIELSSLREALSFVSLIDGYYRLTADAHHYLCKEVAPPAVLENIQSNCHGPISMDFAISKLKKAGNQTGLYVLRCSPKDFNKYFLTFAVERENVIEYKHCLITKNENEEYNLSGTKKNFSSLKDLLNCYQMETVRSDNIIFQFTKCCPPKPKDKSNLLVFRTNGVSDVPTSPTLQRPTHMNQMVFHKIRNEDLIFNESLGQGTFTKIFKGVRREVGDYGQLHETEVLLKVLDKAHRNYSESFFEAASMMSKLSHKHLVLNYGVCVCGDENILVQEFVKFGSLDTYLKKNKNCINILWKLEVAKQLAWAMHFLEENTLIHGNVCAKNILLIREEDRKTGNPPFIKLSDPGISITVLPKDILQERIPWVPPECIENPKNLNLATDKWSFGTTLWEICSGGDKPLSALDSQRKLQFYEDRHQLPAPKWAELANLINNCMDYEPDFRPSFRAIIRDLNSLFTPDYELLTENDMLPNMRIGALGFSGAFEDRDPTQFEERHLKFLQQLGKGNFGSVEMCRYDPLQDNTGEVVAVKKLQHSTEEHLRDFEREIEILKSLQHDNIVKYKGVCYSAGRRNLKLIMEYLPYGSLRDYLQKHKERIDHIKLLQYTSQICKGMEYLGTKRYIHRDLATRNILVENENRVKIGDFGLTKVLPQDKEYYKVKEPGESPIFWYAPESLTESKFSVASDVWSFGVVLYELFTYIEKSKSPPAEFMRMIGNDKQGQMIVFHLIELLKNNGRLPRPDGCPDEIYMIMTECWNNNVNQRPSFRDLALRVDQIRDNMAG

FGFR3 = FGFR3 (UniProt P22607); test: as above
EPHB1 = EPHB1 (UniProt P54762); test: as above
Sequence of EPHB1 (P54762 whole entry, looked up): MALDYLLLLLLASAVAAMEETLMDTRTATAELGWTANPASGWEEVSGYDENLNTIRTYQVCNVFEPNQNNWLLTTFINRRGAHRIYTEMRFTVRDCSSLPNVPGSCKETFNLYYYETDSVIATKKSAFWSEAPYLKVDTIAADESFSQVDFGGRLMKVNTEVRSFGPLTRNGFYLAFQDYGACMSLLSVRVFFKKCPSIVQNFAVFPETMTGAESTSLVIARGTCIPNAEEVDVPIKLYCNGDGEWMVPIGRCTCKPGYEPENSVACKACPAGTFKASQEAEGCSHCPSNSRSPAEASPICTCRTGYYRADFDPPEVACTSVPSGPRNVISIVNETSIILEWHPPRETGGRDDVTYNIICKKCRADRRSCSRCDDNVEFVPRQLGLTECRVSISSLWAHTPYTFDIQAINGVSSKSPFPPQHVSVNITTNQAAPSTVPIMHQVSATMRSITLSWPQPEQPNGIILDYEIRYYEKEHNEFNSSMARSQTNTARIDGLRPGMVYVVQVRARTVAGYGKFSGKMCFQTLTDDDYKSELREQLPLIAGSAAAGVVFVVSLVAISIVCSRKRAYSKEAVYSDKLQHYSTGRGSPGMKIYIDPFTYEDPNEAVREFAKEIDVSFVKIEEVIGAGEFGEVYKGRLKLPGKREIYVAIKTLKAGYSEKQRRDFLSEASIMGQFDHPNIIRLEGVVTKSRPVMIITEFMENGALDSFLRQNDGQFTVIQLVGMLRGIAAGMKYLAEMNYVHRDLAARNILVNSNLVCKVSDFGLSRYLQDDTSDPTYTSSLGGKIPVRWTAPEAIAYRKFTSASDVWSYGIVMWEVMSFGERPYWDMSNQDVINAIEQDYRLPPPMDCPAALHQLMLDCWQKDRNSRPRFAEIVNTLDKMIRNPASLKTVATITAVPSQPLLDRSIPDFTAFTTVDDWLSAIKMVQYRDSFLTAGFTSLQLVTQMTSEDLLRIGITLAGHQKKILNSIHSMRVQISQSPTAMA

Fer (mouse) = test: as above
Hck = Hck (UniProt P08631); test: as above
Sequence of Hck (P08631 whole entry, looked up): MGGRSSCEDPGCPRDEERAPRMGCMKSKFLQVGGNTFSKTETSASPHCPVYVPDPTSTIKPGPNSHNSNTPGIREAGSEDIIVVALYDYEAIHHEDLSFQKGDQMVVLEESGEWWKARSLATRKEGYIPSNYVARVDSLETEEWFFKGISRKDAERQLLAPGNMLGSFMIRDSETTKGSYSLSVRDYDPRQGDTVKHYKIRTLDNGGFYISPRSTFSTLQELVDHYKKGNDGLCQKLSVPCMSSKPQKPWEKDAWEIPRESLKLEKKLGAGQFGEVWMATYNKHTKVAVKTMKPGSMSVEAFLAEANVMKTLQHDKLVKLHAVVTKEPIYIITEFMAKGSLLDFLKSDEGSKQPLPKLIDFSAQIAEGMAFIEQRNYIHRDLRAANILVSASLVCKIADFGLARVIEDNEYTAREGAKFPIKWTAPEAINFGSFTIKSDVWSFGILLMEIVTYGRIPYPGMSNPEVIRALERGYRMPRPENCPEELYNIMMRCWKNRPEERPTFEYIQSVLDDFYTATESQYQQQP

Fyn = Fyn (UniProt P06241); test: as above
Sequence of Fyn (P06241 whole entry, looked up): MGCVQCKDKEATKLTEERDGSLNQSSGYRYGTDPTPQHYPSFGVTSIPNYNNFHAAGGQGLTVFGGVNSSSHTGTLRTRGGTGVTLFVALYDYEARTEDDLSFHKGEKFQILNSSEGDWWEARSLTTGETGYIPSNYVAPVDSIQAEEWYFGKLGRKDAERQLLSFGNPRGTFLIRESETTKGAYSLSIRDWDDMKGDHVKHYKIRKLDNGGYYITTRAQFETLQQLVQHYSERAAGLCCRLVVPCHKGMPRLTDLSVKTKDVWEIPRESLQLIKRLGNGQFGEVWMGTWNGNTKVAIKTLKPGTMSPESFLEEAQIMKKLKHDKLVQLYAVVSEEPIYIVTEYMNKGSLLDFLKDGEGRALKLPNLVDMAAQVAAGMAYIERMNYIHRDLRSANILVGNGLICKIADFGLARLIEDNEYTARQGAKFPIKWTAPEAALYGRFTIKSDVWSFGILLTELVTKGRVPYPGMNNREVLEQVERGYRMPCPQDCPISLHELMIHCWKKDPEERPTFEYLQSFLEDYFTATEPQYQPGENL

MERTK = MERTK (UniProt Q12866); test: as above
Sequence of MERTK (Q12866 whole entry, looked up): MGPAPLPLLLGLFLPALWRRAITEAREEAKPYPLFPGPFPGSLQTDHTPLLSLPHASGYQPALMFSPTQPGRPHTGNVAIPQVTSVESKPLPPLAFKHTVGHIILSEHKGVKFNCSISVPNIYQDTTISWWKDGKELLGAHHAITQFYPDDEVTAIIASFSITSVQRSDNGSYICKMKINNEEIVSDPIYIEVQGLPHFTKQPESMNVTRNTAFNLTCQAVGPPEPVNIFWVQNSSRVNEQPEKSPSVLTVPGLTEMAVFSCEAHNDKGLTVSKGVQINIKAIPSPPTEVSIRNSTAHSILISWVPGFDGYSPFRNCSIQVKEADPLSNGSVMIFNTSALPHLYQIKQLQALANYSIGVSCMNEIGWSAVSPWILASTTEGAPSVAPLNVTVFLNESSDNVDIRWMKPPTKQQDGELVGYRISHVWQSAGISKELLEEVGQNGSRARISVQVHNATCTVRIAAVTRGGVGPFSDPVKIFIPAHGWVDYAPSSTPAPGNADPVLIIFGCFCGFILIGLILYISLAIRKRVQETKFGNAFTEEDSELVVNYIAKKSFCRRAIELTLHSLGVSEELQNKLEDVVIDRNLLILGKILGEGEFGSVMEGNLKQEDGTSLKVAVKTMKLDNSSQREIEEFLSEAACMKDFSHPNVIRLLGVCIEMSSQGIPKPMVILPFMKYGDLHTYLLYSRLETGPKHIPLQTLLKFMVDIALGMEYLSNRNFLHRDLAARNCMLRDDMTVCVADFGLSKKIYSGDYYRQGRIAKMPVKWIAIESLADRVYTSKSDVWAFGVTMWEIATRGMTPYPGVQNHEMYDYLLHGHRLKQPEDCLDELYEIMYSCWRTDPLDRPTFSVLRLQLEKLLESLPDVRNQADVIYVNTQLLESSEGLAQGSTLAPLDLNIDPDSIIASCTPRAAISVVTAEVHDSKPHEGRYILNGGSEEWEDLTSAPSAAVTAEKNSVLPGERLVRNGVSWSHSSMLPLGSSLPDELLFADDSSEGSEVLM

FGFR1 = FGFR1 (UniProt P11362); test: as above
EPHB2 = EPHB2 (UniProt P29323); test: as above
Fes = Fes (UniProt P07332); test: as above
c-Src = test: as above
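Wherever SH2 binding enrichment of the phosphorylated peptide, bacterial display is given: peptide library displayed on the E. coli surface as eCPX fusions, selected cells deep-sequenced, score is each peptide's frequency after selection divided by its frequency in the input.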
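Wherever phosphorylation enrichment, bacterial display is given: 11-residue human phosphosite peptides and single-mutation variants displayed on the E. coli surface, counted by deep sequencing, each peptide's frequency after selection divided by its frequency in the unselected input library; frequency after pTyr selection over input frequency; kinase dosed for 20-30% of maximal phosphorylation in three min.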

Sequence of Grb2 SH2 (P62993 whole entry, looked up): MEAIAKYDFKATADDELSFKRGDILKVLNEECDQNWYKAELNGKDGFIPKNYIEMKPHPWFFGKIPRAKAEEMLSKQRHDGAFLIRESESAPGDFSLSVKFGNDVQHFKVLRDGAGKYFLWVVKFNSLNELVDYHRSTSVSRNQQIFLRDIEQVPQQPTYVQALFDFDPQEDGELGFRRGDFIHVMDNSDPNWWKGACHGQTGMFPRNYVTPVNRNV

Sequence	SH2 binding enrichment (Grb2 SH2)	SH2 binding enrichment (SHP2-C SH2)	SH2 binding enrichment (c-Src SH2)	phosphorylation enrichment (c-Abl (mouse))	phosphorylation enrichment (AncSZ)	phosphorylation enrichment (Jak2)	phosphorylation enrichment (FGFR3)	phosphorylation enrichment (EPHB1)	phosphorylation enrichment (Fer (mouse))	phosphorylation enrichment (Hck)	phosphorylation enrichment (Fyn)	phosphorylation enrichment (MERTK)	phosphorylation enrichment (FGFR1)	phosphorylation enrichment (EPHB2)	phosphorylation enrichment (Fes)	phosphorylation enrichment (c-Src)
FDGKEYDPVEA [MAPRE2_Y167_YF]	0.985	0.408	0.795	0.924	1.5	1.2	0.801	0.636	0.631	0.617	0.62	0.493	0.545	0.545	1.43	0.573
LTFDEYRNNSQ [ANXA3_Y216_I219N]	0.654	0.616	0.417	1.13	0.762	1.38	0.632	0.431	0.553	0.443	0.675	0.4	0.573	0.682	1.24	0.753
CVVVPYEPPEV [TP53_Y220_S215C]	0.76	0.576	0.517	1.01	1.65	1.38	1.03	0.864	0.854	0.599	0.568	0.462	0.574	0.641	1.54	0.557
LGRKLYSIATP [ABHD12_Y345_A349T]	1.11	0.621	0.616	1.07	0.773	1.3	0.635	0.576	0.698	0.672	0.413	1.29	0.612	0.471	1.18	0.698
FQGGTYSKACT [FGG_Y380_S384C_YF]	0.918	0.746	0.783	0.633	0.528	0.503	0.439	0.404	0.46	0.473	0.35	0.446	0.448	0.366	0.589	0.447
ADMETYLLEKS [MYH7_Y266_I263M]	0.67	0.564	0.523	0.864	0.949	0.983	0.582	0.612	0.454	0.549	0.573	0.447	0.573	0.581	1.11	0.869
ETLLFYGCRRS [POR_Y564_YF]	0.66	0.582	0.299	0.82	0.749	0.659	0.445	0.468	0.465	0.463	0.43	0.424	0.621	0.458	0.675	0.563
ARAFIYAIIPA [ACKtide_2014]	1.03	0.777	0.764	2.27	1.4	1.86	1.1	5.28	0.81	4.01	2.65	6.87	1.07	2.22	1.46	3.54
FQHLRYIKQLG [SAMHD1_Y146_R143H]	0.722	0.746	0.496	0.502	0.685	0.706	0.611	0.374	0.436	0.395	0.393	0.363	0.393	0.371	0.775	0.331
YSIDYYRVGGH [NTRK2_Y707_T704I]	0.832	0.753	1.44	0.494	1.65	6.54	9.07	1.52	0.514	1.78	1.31	8.42	12.5	0.86	0.916	2.15
AEQEEYSAMRD [NRAS_Y64_G60E]	1.01	0.785	0.456	0.802	1.4	1.14	0.737	0.541	0.469	0.571	0.458	0.478	0.525	0.566	1.26	0.536
CTLLPYYSARV [DGKE_Y269]	0.74	0.889	1.81	0.735	1.03	0.937	0.699	0.601	0.497	0.604	0.464	0.508	0.485	0.655	1.04	0.579
LENSTYQYIHV [CRB1_Y760_R764H]	1.05	1.06	1.45	1.01	2.84	1.18	5.6	11.2	17.8	7.21	3.32	7.77	9.48	5.17	1.68	3.15
SGGSSYGSGGC [KRT1_Y532_G537C]	0.756	0.536	0.538	0.697	0.681	0.677	0.667	0.558	0.53	0.493	0.465	0.431	0.589	0.596	0.932	0.502
